The record followed here is article PMC2443190, “Novel Intermolecular Iterative Mechanism for Biosynthesis of Mycoketide Catalyzed by a Bimodular Polyketide Synthase” (PLoS Biology, 2008).

A value given as a limit tells only on which side of the number the result lay.

This experiment concerns the target PKS12Δ1 E20S mutant protein (M. tuberculosis H37Rv) (UniProt I6XD69).

With “PKS12Δ1 E20S mutant protein (from UniProt I6XD69 1-4151) (enzyme)”, the catalytic turnover (fold decrease) came to 5 and the product formation by quantitative radio-HPLC (fold decrease) is over 5.
